# T1: … 3 (SEP3), in vitro produced (Arabidopsis), O22456
# T1 chain: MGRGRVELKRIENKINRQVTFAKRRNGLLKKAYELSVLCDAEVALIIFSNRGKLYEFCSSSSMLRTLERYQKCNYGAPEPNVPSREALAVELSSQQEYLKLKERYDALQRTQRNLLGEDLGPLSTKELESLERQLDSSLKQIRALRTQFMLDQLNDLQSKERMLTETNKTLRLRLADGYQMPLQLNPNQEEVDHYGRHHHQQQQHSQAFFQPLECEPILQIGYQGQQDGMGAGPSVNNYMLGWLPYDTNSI
# B1: … 3 (SEP3), in vitro produced, O22456 1-251 (natural protein)
# chain: T1 chain
# Target: T1, … 3 (SEP3), in vitro produced …
# Assay: native gel or EMSA; in vitro produced proteins (wheat germ TnT) mixed with a DY-682 labelled ~100 bp DNA probe containing a CArG-box (SAUR10 probe); protein complexes read from the shifted bands on DNA; anti-FLAG antibody added for supershift where FUL-FLAG was used
# Details: remark: other sources report otherwise
binder,measurement,value
B1,stoichiometry N,2
